These results are taken from patent US20230212549A1 (3B PHARMACEUTICALS, published 2023).

The chains are these.
B1: N4Ac-PPAc-Ttds-Nle-[C(3Lut)-PPTEFC]-OH (peptide)
peptide: {N4Ac-PPAc-Ttds(4)}-[Nle]CPPTEFC-OH
modifications: linker 2-8 via 3Lut
notes: also called 3BP-4775
B2: Hex-[Cys(3MeBn)-Pro-4Dfp-Thr-Glu-Phe-Cys]-NH2 (peptide)
peptide: Hexanoyl-CP[Pro(4,4-F2)]TEFC-NH2
modifications: linker 1-7 via mXylylene
SMILES: CCCCCC(=O)N[C@H]1CSCc2cccc(c2)CSC[C@@H](C(N)=O)NC(=O)[C@H](Cc2ccccc2)NC(=O)[C@H](CCC(=O)O)NC(=O)[C@H]([C@@H](C)O)NC(=O)[C@@H]2CC(F)(F)CN2C(=O)[C@@H]2CCCN2C1=O
notes: also called 3BP-3365
B3: Hex-[Cys(3MeBn)-Pro-Eay-Thr-Glu-Phe-Cys]-NH2 (peptide)
peptide: Hexanoyl-CP[Pro(trans-4-Ph)]TEFC-NH2
modifications: linker 1-7 via mXylylene
SMILES: CCCCCC(=O)N[C@H]1CSCc2cccc(c2)CSC[C@@H](C(N)=O)NC(=O)[C@H](Cc2ccccc2)NC(=O)[C@H](CCC(=O)O)NC(=O)[C@H]([C@@H](C)O)NC(=O)[C@@H]2C[C@@H](c3ccccc3)CN2C(=O)[C@@H]2CCCN2C1=O
notes: also called 3BP-3353
B4: Hex-[Cys(3MeBn)-Pro-Pro-Opc-Glu-Phe-Cys]-NH2 (peptide)
peptide: Hexanoyl-CPP[Opc]EFC-NH2
modifications: linker 1-7 via mXylylene
SMILES: CCCCCC(=O)N[C@H]1CSCc2cccc(c2)CSC[C@@H](C(N)=O)NC(=O)[C@H](Cc2ccccc2)NC(=O)[C@H](CCC(=O)O)NC(=O)[C@H](CCCNC(=O)c2cnccn2)NC(=O)[C@@H]2CCCN2C(=O)[C@@H]2CCCN2C1=O
notes: also called 3BP-3355
B5: Hex-[Cys(3MeBn)-Pro-Pro-Thr-Glu-Nmf-Cys]-NH2 (peptide)
peptide: Hexanoyl-CPPTE[NMeF]C-NH2
modifications: linker 1-7 via mXylylene
SMILES: CCCCCC(=O)N[C@H]1CSCc2cccc(c2)CSC[C@@H](C(N)=O)NC(=O)[C@H](Cc2ccccc2)N(C)C(=O)[C@H](CCC(=O)O)NC(=O)[C@H]([C@@H](C)O)NC(=O)[C@@H]2CCCN2C(=O)[C@@H]2CCCN2C1=O
notes: also called 3BP-3358
B6: Hex-[Cys(3MeBn)-Pro-Pro-Thr-Glu-Tic-Cys]-NH2 (peptide)
peptide: Hexanoyl-CPPTE[Tic]C-NH2
modifications: linker 1-7 via mXylylene
SMILES: CCCCCC(=O)N[C@H]1CSCc2cccc(c2)CSC[C@@H](C(N)=O)NC(=O)[C@@H]2Cc3ccccc3CN2C(=O)[C@H](CCC(=O)O)NC(=O)[C@H]([C@@H](C)O)NC(=O)[C@@H]2CCCN2C(=O)[C@@H]2CCCN2C1=O
notes: also called 3BP-3359
B7: Hex-[Cys(3MeBn)-Pro-Pro-Orn(Ac)-Glu-Phe-Cys]-NH2 (peptide)
peptide: Hexanoyl-CPP[Orn](Ac)EFC-NH2
modifications: linker 1-7 via mXylylene
SMILES: CCCCCC(=O)N[C@H]1CSCc2cccc(c2)CSC[C@@H](C(N)=O)NC(=O)[C@H](Cc2ccccc2)NC(=O)[C@H](CCC(=O)O)NC(=O)[C@H](CCCNC(C)=O)NC(=O)[C@@H]2CCCN2C(=O)[C@@H]2CCCN2C1=O
notes: also called 3BP-3372
B8: Hex-[Cys(3MeBn)-Pro-Tap-Thr-Glu-Phe-Cys]-NH2 (peptide)
peptide: Hexanoyl-CP[Pro(4S-NH2)]TEFC-NH2
modifications: linker 1-7 via mXylylene
SMILES: CCCCCC(=O)N[C@H]1CSCc2cccc(c2)CSC[C@@H](C(N)=O)NC(=O)[C@H](Cc2ccccc2)NC(=O)[C@H](CCC(=O)O)NC(=O)[C@H]([C@@H](C)O)NC(=O)[C@@H]2C[C@H](N)CN2C(=O)[C@@H]2CCCN2C1=O
notes: also called 3BP-3367
B9: Hex-[Cys(3MeBn)-Pro-Pro-Thr-Glu-Phe-Pen]-NH2 (peptide)
peptide: Hexanoyl-CPPTEF[Pen]-NH2
modifications: linker 1-7 via mXylylene
SMILES: CCCCCC(=O)N[C@H]1CSCc2cccc(c2)CSC(C)(C)[C@@H](C(N)=O)NC(=O)[C@H](Cc2ccccc2)NC(=O)[C@H](CCC(=O)O)NC(=O)[C@H]([C@@H](C)O)NC(=O)[C@@H]2CCCN2C(=O)[C@@H]2CCCN2C1=O
notes: also called 3BP-3351
B10: nBu-CAyl-[C(tMeBn(NODAGA-AET))-PPTEFC]-OH (peptide)
peptide: CPPTEFC
modifications: N-term nBu-CAyl-; Cys1 and Cys7 thioether-bridged by tMeBn(NODAGA-AET); C-term -OH
notes: also called 3BP-4724
B11: N4Ac-PPAc-Ttds-Nle-[C(3MeBn)-PPTEFC]D-OH (peptide)
peptide: {N4Ac-PPAc-Ttds(4)}-[Nle]CPPTEFCD-OH
modifications: linker 2-8 via 3MeBn
notes: also called 3BP-4785

Where “and” joins values, the source holds several entries; their conditions need not be identical. Equal values may be shown once. Numbered stars: 1 amine (or outer) side, 2 acyl side, 3 side chain; on linkers, the order of the positions; unused ones are H or OH. Bridge positions count the residues as written; N and C are the ends. Square brackets hold non-standard residues; d marks the D form. Primed or numbered codes have the meaning given here. * marks the point of attachment. 3MeBn = 3-Methylbenzylidene (m-xylylene thioether bridge from α,α′-dibromo-m-xylene); Ttds(4) = spacer between chelator and peptide, O=C(CCC(=O)[*:2])NCCCOCCOCCOCCCN[*:1]; Opc = (S)-N-(pyrazinylcarbonyl)-ornithine, O=C(NCCC[C@H](N[*:1])C(=O)[*:2])c1cnccn1; N4Ac = 6-Carboxy-1,4,8,11-tetraazaundecane, an N4-chelator, NCCNCC(CNCCN)C(=O)*; 3Lut = 3,5-lutidylidene (derived from 3,5-lutidine); Pro(trans-4-Ph) = O=C(O)[C@@H]1C[C@@H](c2ccccc2)CN1; Pro(4S-NH2) = N[C@@H]1CN[C@H](C(=O)O)C1; Pro(4,4-F2) = O=C(O)[C@@H]1CC(F)(F)CN1; mXylylene = c1cc(C[*:1])cc(C[*:2])c1; PPAc = 4-Carboxymethyl piperazine; NMeF = CN[C@@H](Cc1ccccc1)C(=O)O; Tic = O=C(O)[C@@H]1Cc2ccccc2CN1; Pen = CC(C)(S)[C@H](N)C(=O)O; Nle = CCCC[C@H](N)C(=O)O; Orn = NCCC[C@H](N)C(=O)O; Hexanoyl = CCCCCC(=O)* A value given as a limit tells only on which side of the number the result lay.

The target of one assay is T1, human fibroblast activating protein (FAP) on WI-38 fibroblasts (human, UniProt Q12884 1-760).
T1 construct: FAP-expressing human WI-38 fibroblasts (ECACC)
As to the kind of experiment: competitive FACS on WI-38 cells vs 3 nM Cy5-labeled peptide; pIC50 category B = 7.1-8.0.
On to B1, for which the pIC50 fell in the range of 7.1 to 8 pic50.

The next assay addresses T2, fibroblast activation protein (FAP) on FAP-expressing human WI-38 fibroblasts (human, UniProt Q12884 1-760).
T2 construct: also called human FAP
As to the kind of experiment: competitive FACS, WI-38 cells, vs Cy5 tracer m3; D = pIC50 <=6.0.
B2: the “pIC50 Category (FACS)” value is not above 6 pIC50.
Still for that read-out and setting: then B3, with not above 6 pIC50; and B4, with not above 6 pIC50; and B5, with not above 6 pIC50.
Still for that read-out and setting: in the case of B6 it was not above 6 pIC50; in that of B7, not above 6 pIC50; in that of B8, not above 6 pIC50.
For the molecule B9, the “pIC50 Category (FACS)” value was not above 6 pIC50.

In a further assay the target is T1, human fibroblast activating protein …. Nature of the assay: competitive FACS on WI-38 cells vs 3 nM Cy5-labeled peptide; pIC50 category A = >8.0.
Molecule B10 yielded a pIC50 of more than 8 pic50.
Still for that read-out and setting: in the case of B11 it was more than 8 pic50.

A further assay has as its target T3, Human recombinant FAP captured on anti-FAP antibody (SPR) (human, UniProt Q12884 26-760).
T3 construct: whole entry of human FAP named; also called rhFAP
Nature of the assay: SPR (Biacore), rhFAP captured by anti-FAP antibody; pKD category B = 7.1-8.0.
B1: the pKD lay in the range of 7.1 to 8 pkd.

The target of a further assay is Recombinant human FAP (R&D systems, #3715-SE) (human, UniProt Q12884 26-760). Nature of the assay: cell-based or functional assay.
With B2, the “pIC50 Category (Activity)” value is 6.1 pIC50 and 7 pIC50.
For B3, the “pIC50 Category (Activity)” value was 6.1 pIC50 and 7 pIC50.
With B4, the “pIC50 Category (Activity)” value was 6.1 pIC50 and 7 pIC50.
B5: the “pIC50 Category (Activity)” value was 6.1 pIC50 and 7 pIC50.
On to B6, for which the “pIC50 Category (Activity)” value was 6.1 pIC50 and 7 pIC50.
For the molecule B7, the “pIC50 Category (Activity)” value is 6.1 pIC50 and 7 pIC50.
Still for that read-out and setting: then B8, with 6.1 pIC50 and 7 pIC50; and B9, with 6.1 pIC50 and 7 pIC50.
